# Laboratory results as given in the supplement of paper PMC7125110.
# ± gives the standard error. Variants at the floor of the assay were thinned out.
# B1: glmS ribozyme (parent)
# chain: AUAAAAGCGCCAGAACUACAGAAAUGUAGUUGACGAGGAGGAGGUUUAUCGAAUUUUCGGCGGAUGCCUCCAAA
# What was measured:
# Conditions in all cases: with glucosamine-6-phosphate
# glucosamine-6-phosphate [1] = variants of: B1; assay: self-cleavage kobs at 40 uM GlcN6P; higher = faster cleavage; RNA array
# How it was run: (§1)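 Glucosamine-6-phosphate in HEPES/KCl/Mg(OAc)2 buffer, at 40 μM to 10 mM, was flowed over barcoded ribozyme variants transcribed in situ by E. coli RNA polymerase on sequenced MiSeq chips. Tracking was through a hybridised Cy3 probe at 37 °C. kobs, kcat and KM came from exponential decay fits and weighted Michaelis–Menten fits of normalised per-tile medians.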
# glucosamine-6-phosphate [2] = variants of: B1; assay: self-cleavage kobs at 160 uM GlcN6P; higher = faster cleavage; RNA array
# How it was run: as §1
# glucosamine-6-phosphate [3] = variants of: B1; assay: self-cleavage kobs at 640 uM GlcN6P; higher = faster cleavage; RNA array
# How it was run: as §1
# glucosamine-6-phosphate [4] = variants of: B1; assay: self-cleavage kobs at 2500 uM GlcN6P; higher = faster cleavage; RNA array
# How it was run: as §1
# glucosamine-6-phosphate [5] = variants of: B1; assay: self-cleavage kobs at 10000 uM GlcN6P; higher = faster cleavage; RNA array
# How it was run: as §1
Variant,self-cleavage kobs at 40 uM GlcN6P (glucosamine-6-phosphate [1]) [s⁻¹],self-cleavage kobs at 160 uM GlcN6P (glucosamine-6-phosphate [2]) [s⁻¹],self-cleavage kobs at 640 uM GlcN6P (glucosamine-6-phosphate [3]) [s⁻¹],self-cleavage kobs at 2500 uM GlcN6P (glucosamine-6-phosphate [4]) [s⁻¹],self-cleavage kobs at 10000 uM GlcN6P (glucosamine-6-phosphate [5]) [s⁻¹]
C8A U46A,< 1e-05,< 1e-05,< 1e-05,< 1e-05,< 1e-05
A12G G37C U46C A53G C68U,< 1e-05,,,,< 1e-05
G32U G62A,< 1e-05,,< 1e-05,< 1e-05,< 1e-05
A36C G41U G44C U55G U56C C61G,< 1e-05,,,,
G38A A42U G44U A48G,< 1e-05,,,,
G7C U55A,< 1e-05,< 1e-05,< 1e-05,< 1e-05,
U56C C61G,< 1e-05,,,< 1e-05,< 1e-05
G7A G41A U45C U49A,< 1e-05,,,,
G13C G35C,< 1e-05,< 1e-05,,< 1e-05,< 1e-05
G7C,< 1e-05,< 1e-05,< 1e-05,< 1e-05,< 1e-05
U31A U55G,0.000331 ± 5.6e-05,0.000659 ± 9.3e-05,0.0036 ± 0.00064,0.00546 ± 0.0012,0.0123 ± 0.0044
C8U G44A,< 1e-05,< 1e-05,< 1e-05,< 1e-05,
A39U A42G C67U,0.000231 ± 6.2e-05,0.000536 ± 0.00015,,0.00297 ± 0.00075,0.0241 ± 0.0085
G44U C58G C68U,< 1e-05,< 1e-05,< 1e-05,< 1e-05,< 1e-05
A36G A42U,< 1e-05,< 1e-05,< 1e-05,,< 1e-05
G40U G59U U69C C71U,< 1e-05,,,< 1e-05,
U54G U56C,6.58e-05 ± 1.3e-05,0.000146 ± 2.8e-05,0.000986 ± 0.00024,0.00123 ± 0.00029,0.00518 ± 0.0011
C8G C16G G41A U47A,< 1e-05,,< 1e-05,< 1e-05,< 1e-05
C61U C67A C70U,4.32e-05 ± 1.7e-05,,,,
